# From publication PMC10501992, “How Pol α-primase is targeted to replisomes to prime eukaryotic DNA replication” (Molecular Cell, 2023)
# T1: PRIM2 (human primase accessory subunit) (human, UniProt P49643 1-509)
# T1 construct: PRIM2, human; modelled residues 1-5 (N terminus) and 17-252 (NTD); stood in the assay as a subunit of m18; also called PRIM2NTD; PRIM2_(Nterm)
# T1 sequence: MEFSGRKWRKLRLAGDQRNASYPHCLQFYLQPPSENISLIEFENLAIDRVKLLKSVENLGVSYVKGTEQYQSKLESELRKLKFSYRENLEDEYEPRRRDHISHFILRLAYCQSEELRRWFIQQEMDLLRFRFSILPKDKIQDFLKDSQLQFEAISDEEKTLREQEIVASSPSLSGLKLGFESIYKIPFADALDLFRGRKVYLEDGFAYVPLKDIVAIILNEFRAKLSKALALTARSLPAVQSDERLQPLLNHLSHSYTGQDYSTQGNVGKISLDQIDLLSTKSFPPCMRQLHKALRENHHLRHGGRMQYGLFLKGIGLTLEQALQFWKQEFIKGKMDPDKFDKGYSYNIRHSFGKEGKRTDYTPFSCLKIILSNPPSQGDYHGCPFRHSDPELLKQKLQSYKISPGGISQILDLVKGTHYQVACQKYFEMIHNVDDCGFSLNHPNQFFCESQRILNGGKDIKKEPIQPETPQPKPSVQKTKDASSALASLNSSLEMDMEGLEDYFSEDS
# T2: POLA1 (human Pol α catalytic subunit) (human, UniProt P09884 1-1462)
# T2 construct: POLA1, human; modelled residues 1279-1445 and 1448-1458 (CTD); stood in the assay as a subunit of m18; also called POLA1CTD; POLA1_(exo-cat)
# T2 sequence: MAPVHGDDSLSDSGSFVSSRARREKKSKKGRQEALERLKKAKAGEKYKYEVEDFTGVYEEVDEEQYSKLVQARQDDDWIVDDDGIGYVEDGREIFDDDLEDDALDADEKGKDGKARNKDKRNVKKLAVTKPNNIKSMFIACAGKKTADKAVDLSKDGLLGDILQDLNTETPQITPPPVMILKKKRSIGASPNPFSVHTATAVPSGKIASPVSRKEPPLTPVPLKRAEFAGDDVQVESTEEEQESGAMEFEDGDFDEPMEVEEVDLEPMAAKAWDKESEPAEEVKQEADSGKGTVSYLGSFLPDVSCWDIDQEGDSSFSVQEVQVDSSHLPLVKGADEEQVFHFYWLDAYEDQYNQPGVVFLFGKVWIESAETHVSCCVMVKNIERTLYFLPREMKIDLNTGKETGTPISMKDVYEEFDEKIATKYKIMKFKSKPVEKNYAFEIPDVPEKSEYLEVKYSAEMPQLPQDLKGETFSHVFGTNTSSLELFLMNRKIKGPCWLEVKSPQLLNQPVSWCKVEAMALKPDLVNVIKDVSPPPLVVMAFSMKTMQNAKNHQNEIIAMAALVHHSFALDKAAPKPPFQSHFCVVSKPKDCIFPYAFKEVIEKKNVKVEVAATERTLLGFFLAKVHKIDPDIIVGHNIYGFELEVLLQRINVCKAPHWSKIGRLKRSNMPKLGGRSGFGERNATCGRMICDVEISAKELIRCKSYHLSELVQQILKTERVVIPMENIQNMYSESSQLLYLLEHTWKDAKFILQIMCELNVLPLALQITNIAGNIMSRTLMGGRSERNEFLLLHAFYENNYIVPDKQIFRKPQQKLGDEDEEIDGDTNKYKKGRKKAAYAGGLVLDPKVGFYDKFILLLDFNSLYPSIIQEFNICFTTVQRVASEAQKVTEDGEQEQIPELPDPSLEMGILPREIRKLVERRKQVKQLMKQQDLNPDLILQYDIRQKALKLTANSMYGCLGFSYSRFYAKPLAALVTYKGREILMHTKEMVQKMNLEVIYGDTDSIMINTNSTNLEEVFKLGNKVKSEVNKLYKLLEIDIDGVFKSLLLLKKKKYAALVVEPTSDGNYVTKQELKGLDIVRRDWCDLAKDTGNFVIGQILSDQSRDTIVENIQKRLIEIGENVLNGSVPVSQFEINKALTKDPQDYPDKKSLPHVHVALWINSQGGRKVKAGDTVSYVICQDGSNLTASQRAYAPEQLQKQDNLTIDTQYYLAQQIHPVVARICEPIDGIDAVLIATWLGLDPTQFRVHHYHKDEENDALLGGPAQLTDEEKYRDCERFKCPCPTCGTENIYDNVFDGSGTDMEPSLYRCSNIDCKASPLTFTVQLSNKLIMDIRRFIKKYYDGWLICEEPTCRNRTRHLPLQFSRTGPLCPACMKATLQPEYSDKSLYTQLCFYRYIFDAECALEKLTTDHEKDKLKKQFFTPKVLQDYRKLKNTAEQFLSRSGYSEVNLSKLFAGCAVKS
# Assays:
# Assay in all cases: cryo-EM structure; human replisome: 150 nM CMG on fork DNA (60 nt or 15 nt 5′ flap) with 1.5-fold molar excess of AND-1, TIMELESS-TIPIN, CLASPIN and Pol α-primase; 25 mM HEPES-NaOH pH 7.6, 150 mM NaOAc, 0.5 mM TCEP, 500 μM AMP-PNP, 10 mM Mg(OAc)2, on ice; 10-30% glycerol gradient with glutaraldehyde and BS3 cross-linkers
# Conditions in all cases: both partners purified
# [1] = molecular target: T3, human CMG (CDC45-MCM-GINS) replicative helicase (human, UniProt O75419 1-566; P49736 1-904; P25205 1-808; P33991 1-863; P33992 1-734; Q14566 …)
# T3 construct: CDC45, human; MCM2, human; MCM3, human; MCM4, human; MCM5, human; MCM6, human; MCM7, human; PSF1, subunit of GINS, human; PSF2, subunit of GINS, human; PSF3, subunit of GINS, human; SLD5, subunit of GINS, human; the subunits are named in the methods for the MCM3-4A form, which was made as the wild type; copies: + + + + + + + + + +
# [2] = molecular target: T1, PRIM2 (human primase accessory subunit)
# [3] = molecular target: T2, POLA1 (human Pol α catalytic subunit)
binder,measurement,setting,value
"TIMELESS-TIPIN (human) (complex, TIPIN, human; source: purified (Strep-Tactin XT resin, TEV protease, HiTrap Q HP, Superdex 200)) chain 1: MDLHMMNCELLATCSALGYLEGDTYHKEPDCLESVKDLIRYLRHEDETRDVRQQLGAAQILQSDLLPILTQHHQDKPLFDAVIRLMVNLTQPALLCFGNLPKEPSFRHHFLQVLTYLQAYKEAFASEKAFGVLSETLYELLQLGWEERQEEDNLLIERILLLVRNILHVPADLDQEKKIDDDASAHDQLLWAIHLSGLDDLLLFLASSSAEEQWSLHVLEIVSLMFRDQNPEQLAGVGQGRLAQERSADFAELEVLRQREMAEKKTRALQRGNRHSRFGGSYIVQGLKSIGERDLIFHKGLHNLRNYSSDLGKQPKKVPKRRQAARELSIQRRSALNVRLFLRDFCSEFLENCYNRLMGSVKDHLLREKAQQHDETYYMWALAFFMAFNRAASFRPGLVSETLSVRTFHFIEQNLTNYYEMMLTDRKEAASWARRMHLALKAYQELLATVNEMDISPDEAVRESSRIIKNNIFYVMEYRELFLALFRKFDERCQPRSFLRDLVETTHLFLKMLERFCRSRGNLVVQNKQKKRRKKKKKVLDQAIVSGNVPSSPEEVEAVWPALAEQLQCCAQNSELSMDSVVPFDAASEVPVEEQRAEAMVRIQDCLLAGQAPQALTLLRSAREVWPEGDVFGSQDISPEEEIQLLKQILSAPLPRQQGPEERGAEEEEEEEEEEEEELQVVQVSEKEFNFLDYLKRFACSTVVRAYVLLLRSYQQNSAHTNHCIVKMLHRLAHDLKMEALLFQLSVFCLFNRLLSDPAAGAYKELVTFAKYILGKFFALAAVNQKAFVELLFWKNTAVVREMTEGYGSLDDRSSSRRAPTWSPEEEAHLRELYLANKDVEGQDVVEAILAHLNTVPRTRKQIIHHLVQMGLADSVKDFQRKGTHIVLWTGDQELELQRLFEEFRDSDDVLGHIMKNITAKRSRARIVDKLLALGLVAERRELYKKRQKKLASSILPNGAESLKDFCQEDLEEEENLPEEDSEEEEEGGSEAEQVQGSLVLSNENLGQSLHQEGFSIPLLWLQNCLIRAADDREEDGCSQAVPLVPLTEENEEAMENEQFQQLLRKLGVRPPASGQETFWRIPAKLSPTQLRRAAASLSQPEEEQKLQPELQPKVPGEQGSDEEHCKEHRAQALRALLLAHKKKAGLASPEEEDAVGKEPLKAAPKKRQLLDSDEEQEEDEGRNRAPELGAPGIQKKKRYQIEDDEDD chain 2: MLEPQENGVIDLPDYEHVEDETFPPFPPPASPERQDGEGTEPDEESGNGAPVRVPPKRTVKRNIPKLDAQRLISERGLPALRHVFDKAKFKGKGHEAEDLKMLIRHMEHWAHRLFPKLQFEDFIDRVEYLGSKKEVQTCLKRIRLDLPILHEDFVSNNDEVAENNEHDVTSTELDPFLTNLSESEMFASELSRSLTEEQQQRIERNKQLALERRQAKLLSNSQTLGNDMLMNTPRAHTVEEVNTDEDQKEESNGLNEDILDNPCNDAIANTLNEEETLLDQSFKNVQQQLDATSRNITEAR",binding result,[1],binds
"PRIM1 (human primase catalytic subunit) (natural protein, PRIM1, human; modelled residues 9-349 and 386-408; stood in the assay as a subunit of m18) METFDPTELPELLKLYYRRLFPYSQYYRWLNYGGVIKNYFQHREFSFTLKDDIYIRYQSFNNQSDLEKEMQKMNPYKIDIGAVYSHRPNQHNTVKLGAFQAQEKELVFDIDMTDYDDVRRCCSSADICPKCWTLMTMAIRIIDRALKEDFGFKHRLWVYSGRRGVHCWVCDESVRKLSSAVRSGIVEYLSLVKGGQDVKKKVHLSEKIHPFIRKSINIIKKYFEEYALVNQDILENKESWDKILALVPETIHDELQQSFQKSHNSLQRWEHLKKVASRYQNNIKNDKYGPWLEWEIMLQYCFPRLDINVSKGINHLLKSPFSVHPKTGRISVPIDLQKVDQFDPFTVPTISFICRELDAISTNEEEKEENEAESDVKHRTRDYKKTSLAPYVKVFEHFLENLDKSRKGELLKKSDLQKDF",binding result,[2],binds
"POLA2 (human Pol α accessory subunit) (natural protein, POLA2, human; stood in the assay as a subunit of m18) MSASAQQLAEELQIFGLDCEEALIEKLVELCVQYGQNEEGMVGELIAFCTSTHKVGLTSEILNSFEHEFLSKRLSKARHSTCKDSGHAGARDIVSIQELIEVEEEEEILLNSYTTPSKGSQKRAISTPETPLTKRSVSTRSPHQLLSPSSFSPSATPSQKYNSRSNRGEVVTSFGLAQGVSWSGRGGAGNISLKVLGCPEALTGSYKSMFQKLPDIREVLTCKIEELGSELKEHYKIEAFTPLLAPAQEPVTLLGQIGCDSNGKLNNKSVILEGDREHSSGAQIPVDLSELKEYSLFPGQVVIMEGINTTGRKLVATKLYEGVPLPFYQPTEEDADFEQSMVLVACGPYTTSDSITYDPLLDLIAVINHDRPDVCILFGPFLDAKHEQVENCLLTSPFEDIFKQCLRTIIEGTRSSGSHLVFVPSLRDVHHEPVYPQPPFSYSDLSREDKKQVQFVSEPCSLSINGVIFGLTSTDLLFHLGAEEISSSSGTSDRFSRILKHILTQRSYYPLYPPQEDMAIDYESFYVYAQLPVTPDVLIIPSELRYFVKDVLGCVCVNPGRLTKGQVGGTFARLYLRRPAADGAERQSPCIAVQVVRI",binding result,[3],binds
